Measured values from the supplement of paper PMC7125110.
± gives the standard error. This sample holds only a part of the variants without activity.

B1: glmS ribozyme (parent)
chain: AUAAAAGCGCCAGAACUACAGAAAUGUAGUUGACGAGGAGGAGGUUUAUCGAAUUUUCGGCGGAUGCCUCCAAA

Legend:
Details in all cases: with glucosamine-6-phosphate
glucosamine-6-phosphate [1] = variants of: B1; test: self-cleavage kobs at 40 uM GlcN6P; higher = faster cleavage; RNA array
In short: (§1)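 Glucosamine-6-phosphate (40 μM to 10 mM) in HEPES/KCl/Mg(OAc)2 buffer was flowed over sequenced MiSeq chips, and tiles were imaged over ~14 h. Barcoded ribozyme variants there had been transcribed in situ by E. coli RNA polymerase and were tracked through a hybridised Cy3 probe at 37 °C. One- or two-exponential decay fits to per-tile medians, normalised to baseline and to non-cleaving reference variants, gave kobs. kcat and KM came from weighted Michaelis–Menten fits across concentrations.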

glucosamine-6-phosphate [2] = variants of: B1; test: self-cleavage kobs at 160 uM GlcN6P; higher = faster cleavage; RNA array
In short: as §1

glucosamine-6-phosphate [3] = variants of: B1; test: self-cleavage kobs at 2500 uM GlcN6P; higher = faster cleavage; RNA array
In short: as §1

glucosamine-6-phosphate [4] = variants of: B1; test: self-cleavage kobs at 10000 uM GlcN6P; higher = faster cleavage; RNA array
In short: as §1

glucosamine-6-phosphate [5] = variants of: B1; test: self-cleavage kobs at 640 uM GlcN6P; higher = faster cleavage; RNA array
In short: as §1

With C11G U46A the “self-cleavage kobs at 40 uM GlcN6P” value (glucosamine-6-phosphate [1]) was less than 1e-05 s⁻¹, the “self-cleavage kobs at 160 uM GlcN6P” value (glucosamine-6-phosphate [2]) was less than 1e-05 s⁻¹ and the “self-cleavage kobs at 2500 uM GlcN6P” value (glucosamine-6-phosphate [3]) was less than 1e-05 s⁻¹. For the same variant, the “self-cleavage kobs at 10000 uM GlcN6P” value (glucosamine-6-phosphate [4]) was less than 1e-05 s⁻¹.

In the case of C8U C10U C70G, the “self-cleavage kobs at 40 uM GlcN6P” value (glucosamine-6-phosphate [1]) is reported as 5.14e-05 ± 2.4e-05 s⁻¹, the “self-cleavage kobs at 160 uM GlcN6P” value (glucosamine-6-phosphate [2]) is reported as 8.73e-05 ± 2.6e-05 s⁻¹ and the “self-cleavage kobs at 640 uM GlcN6P” value (glucosamine-6-phosphate [5]) is reported as 0.000103 ± 2.5e-05 s⁻¹. For the same variant, the “self-cleavage kobs at 2500 uM GlcN6P” value (glucosamine-6-phosphate [3]) was 0.000587 ± 0.00021 s⁻¹ and the “self-cleavage kobs at 10000 uM GlcN6P” value (glucosamine-6-phosphate [4]) was 5.37e-05 ± 1.7e-05 s⁻¹.

In the case of C34U U45A, the “self-cleavage kobs at 40 uM GlcN6P” value (glucosamine-6-phosphate [1]) is reported as less than 1e-05 s⁻¹, the “self-cleavage kobs at 160 uM GlcN6P” value (glucosamine-6-phosphate [2]) is reported as less than 1e-05 s⁻¹ and the “self-cleavage kobs at 640 uM GlcN6P” value (glucosamine-6-phosphate [5]) is reported as less than 1e-05 s⁻¹. The “self-cleavage kobs at 2500 uM GlcN6P” value (glucosamine-6-phosphate [3]) was less than 1e-05 s⁻¹ and the “self-cleavage kobs at 10000 uM GlcN6P” value (glucosamine-6-phosphate [4]) was less than 1e-05 s⁻¹.

For C8A A42G C68U, the “self-cleavage kobs at 40 uM GlcN6P” value (glucosamine-6-phosphate [1]) was less than 1e-05 s⁻¹ and the “self-cleavage kobs at 10000 uM GlcN6P” value (glucosamine-6-phosphate [4]) was less than 1e-05 s⁻¹.

With G32U C50G C68G the “self-cleavage kobs at 40 uM GlcN6P” value (glucosamine-6-phosphate [1]) was 0.00012 ± 2.5e-05 s⁻¹ and the “self-cleavage kobs at 10000 uM GlcN6P” value (glucosamine-6-phosphate [4]) was 9.96e-05 ± 1.7e-05 s⁻¹.

In the case of U47C G59U C70A, the “self-cleavage kobs at 40 uM GlcN6P” value (glucosamine-6-phosphate [1]) is reported as less than 1e-05 s⁻¹.

For A14C A36C G63A U65C, the “self-cleavage kobs at 40 uM GlcN6P” value (glucosamine-6-phosphate [1]) was less than 1e-05 s⁻¹, the “self-cleavage kobs at 160 uM GlcN6P” value (glucosamine-6-phosphate [2]) was less than 1e-05 s⁻¹ and the “self-cleavage kobs at 10000 uM GlcN6P” value (glucosamine-6-phosphate [4]) was less than 1e-05 s⁻¹.

A64C C68G C70G was tested, and the “self-cleavage kobs at 40 uM GlcN6P” value (glucosamine-6-phosphate [1]) was less than 1e-05 s⁻¹, the “self-cleavage kobs at 640 uM GlcN6P” value (glucosamine-6-phosphate [5]) was less than 1e-05 s⁻¹ and the “self-cleavage kobs at 2500 uM GlcN6P” value (glucosamine-6-phosphate [3]) was less than 1e-05 s⁻¹.

For U30A A39U G51A A64G, the “self-cleavage kobs at 40 uM GlcN6P” value (glucosamine-6-phosphate [1]) was less than 1e-05 s⁻¹ and the “self-cleavage kobs at 10000 uM GlcN6P” value (glucosamine-6-phosphate [4]) was less than 1e-05 s⁻¹.

For C11U A36G C58U C67G, the “self-cleavage kobs at 40 uM GlcN6P” value (glucosamine-6-phosphate [1]) was 4.33e-05 ± 2.1e-05 s⁻¹.

In the case of A12U C70G, the “self-cleavage kobs at 40 uM GlcN6P” value (glucosamine-6-phosphate [1]) is reported as 0.000124 ± 1.2e-05 s⁻¹, the “self-cleavage kobs at 160 uM GlcN6P” value (glucosamine-6-phosphate [2]) is reported as 0.000175 ± 2.3e-05 s⁻¹ and the “self-cleavage kobs at 640 uM GlcN6P” value (glucosamine-6-phosphate [5]) is reported as 0.000558 ± 0.00013 s⁻¹. The “self-cleavage kobs at 10000 uM GlcN6P” value (glucosamine-6-phosphate [4]) was 0.001 ± 0.00029 s⁻¹.

C16A G51U A64C was tested, and the “self-cleavage kobs at 40 uM GlcN6P” value (glucosamine-6-phosphate [1]) was less than 1e-05 s⁻¹, the “self-cleavage kobs at 2500 uM GlcN6P” value (glucosamine-6-phosphate [3]) was less than 1e-05 s⁻¹ and the “self-cleavage kobs at 10000 uM GlcN6P” value (glucosamine-6-phosphate [4]) was less than 1e-05 s⁻¹.

A15G A36G G44U was tested, and the “self-cleavage kobs at 40 uM GlcN6P” value (glucosamine-6-phosphate [1]) was less than 1e-05 s⁻¹ and the “self-cleavage kobs at 2500 uM GlcN6P” value (glucosamine-6-phosphate [3]) was less than 1e-05 s⁻¹.

C50U A64C C67A was tested, and the “self-cleavage kobs at 40 uM GlcN6P” value (glucosamine-6-phosphate [1]) was less than 1e-05 s⁻¹, the “self-cleavage kobs at 640 uM GlcN6P” value (glucosamine-6-phosphate [5]) was less than 1e-05 s⁻¹ and the “self-cleavage kobs at 2500 uM GlcN6P” value (glucosamine-6-phosphate [3]) was less than 1e-05 s⁻¹.

A42U U46C was tested, and the “self-cleavage kobs at 40 uM GlcN6P” value (glucosamine-6-phosphate [1]) was less than 1e-05 s⁻¹, the “self-cleavage kobs at 160 uM GlcN6P” value (glucosamine-6-phosphate [2]) was less than 1e-05 s⁻¹ and the “self-cleavage kobs at 640 uM GlcN6P” value (glucosamine-6-phosphate [5]) was less than 1e-05 s⁻¹.

With C10G A42C U47A G59U the “self-cleavage kobs at 40 uM GlcN6P” value (glucosamine-6-phosphate [1]) was less than 1e-05 s⁻¹.

With A36C A39G G66A the “self-cleavage kobs at 40 uM GlcN6P” value (glucosamine-6-phosphate [1]) was less than 1e-05 s⁻¹ and the “self-cleavage kobs at 10000 uM GlcN6P” value (glucosamine-6-phosphate [4]) was less than 1e-05 s⁻¹.

With A36U U69G the “self-cleavage kobs at 40 uM GlcN6P” value (glucosamine-6-phosphate [1]) was 3.66e-05 ± 8.9e-06 s⁻¹, the “self-cleavage kobs at 160 uM GlcN6P” value (glucosamine-6-phosphate [2]) was 0.000214 ± 3.9e-05 s⁻¹ and the “self-cleavage kobs at 640 uM GlcN6P” value (glucosamine-6-phosphate [5]) was 0.000283 ± 5.8e-05 s⁻¹. The “self-cleavage kobs at 2500 uM GlcN6P” value (glucosamine-6-phosphate [3]) was 9.73e-05 ± 2.3e-05 s⁻¹ and the “self-cleavage kobs at 10000 uM GlcN6P” value (glucosamine-6-phosphate [4]) was 0.000107 ± 4.1e-05 s⁻¹.

For A6G U31C U55G, the “self-cleavage kobs at 40 uM GlcN6P” value (glucosamine-6-phosphate [1]) was less than 1e-05 s⁻¹, the “self-cleavage kobs at 2500 uM GlcN6P” value (glucosamine-6-phosphate [3]) was 4.23e-05 ± 1.7e-05 s⁻¹ and the “self-cleavage kobs at 10000 uM GlcN6P” value (glucosamine-6-phosphate [4]) was 5.16e-05 ± 1.9e-05 s⁻¹.

With A42G G62A the “self-cleavage kobs at 40 uM GlcN6P” value (glucosamine-6-phosphate [1]) was less than 1e-05 s⁻¹, the “self-cleavage kobs at 160 uM GlcN6P” value (glucosamine-6-phosphate [2]) was less than 1e-05 s⁻¹ and the “self-cleavage kobs at 640 uM GlcN6P” value (glucosamine-6-phosphate [5]) was less than 1e-05 s⁻¹. For the same variant, the “self-cleavage kobs at 2500 uM GlcN6P” value (glucosamine-6-phosphate [3]) was less than 1e-05 s⁻¹ and the “self-cleavage kobs at 10000 uM GlcN6P” value (glucosamine-6-phosphate [4]) was less than 1e-05 s⁻¹.

For G44U G60C, the “self-cleavage kobs at 40 uM GlcN6P” value (glucosamine-6-phosphate [1]) was less than 1e-05 s⁻¹, the “self-cleavage kobs at 160 uM GlcN6P” value (glucosamine-6-phosphate [2]) was less than 1e-05 s⁻¹ and the “self-cleavage kobs at 640 uM GlcN6P” value (glucosamine-6-phosphate [5]) was less than 1e-05 s⁻¹. The “self-cleavage kobs at 2500 uM GlcN6P” value (glucosamine-6-phosphate [3]) was less than 1e-05 s⁻¹ and the “self-cleavage kobs at 10000 uM GlcN6P” value (glucosamine-6-phosphate [4]) was less than 1e-05 s⁻¹.
